± gives the standard error. For part of these data: Fewer inactive variants are shown than the library holds.
B1: glmS ribozyme (parent)
chain: AUAAAAGCGCCAGAACUACAGAAAUGUAGUUGACGAGGAGGAGGUUUAUCGAAUUUUCGGCGGAUGCCUCCAAA

Experiments:
Details in all cases: with glucosamine-6-phosphate
glucosamine-6-phosphate [1] = variants of: B1; assay: kcat; higher = faster cleavage; RNA array
Method in brief: (§1)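 Tiles of sequenced MiSeq chips were imaged over ~14 h at 37 °C. On them, barcoded ribozyme variants had been transcribed in situ by E. coli RNA polymerase and were tracked via a hybridised Cy3 probe while glucosamine-6-phosphate (40 μM to 10 mM) in HEPES/KCl/Mg(OAc)2 buffer flowed in. Per-tile medians, normalised to baseline and to non-cleaving reference variants, were fit to one- or two-exponential decays for kobs, and weighted Michaelis–Menten fits gave kcat and KM.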

glucosamine-6-phosphate [2] = variants of: B1; assay: KM; higher = weaker cofactor use; RNA array
Method in brief: as §1

glucosamine-6-phosphate [3] = variants of: B1; assay: self-cleavage kobs at 40 uM GlcN6P; higher = faster cleavage; RNA array
Method in brief: as §1

glucosamine-6-phosphate [4] = variants of: B1; assay: self-cleavage kobs at 160 uM GlcN6P; higher = faster cleavage; RNA array
Method in brief: as §1

glucosamine-6-phosphate [5] = variants of: B1; assay: self-cleavage kobs at 640 uM GlcN6P; higher = faster cleavage; RNA array
Method in brief: as §1

glucosamine-6-phosphate [6] = variants of: B1; assay: self-cleavage kobs at 2500 uM GlcN6P; higher = faster cleavage; RNA array
Method in brief: as §1

glucosamine-6-phosphate [7] = variants of: B1; assay: self-cleavage kobs at 10000 uM GlcN6P; higher = faster cleavage; RNA array
Method in brief: as §1

Row | Variant | kcat (glucosamine-6-phosphate [1]) [s⁻¹] | KM (glucosamine-6-phosphate [2]) [µM] | self-cleavage kobs at 40 uM GlcN6P (glucosamine-6-phosphate [3]) [s⁻¹] | self-cleavage kobs at 160 uM GlcN6P (glucosamine-6-phosphate [4]) [s⁻¹] | self-cleavage kobs at 640 uM GlcN6P (glucosamine-6-phosphate [5]) [s⁻¹] | self-cleavage kobs at 2500 uM GlcN6P (glucosamine-6-phosphate [6]) [s⁻¹] | self-cleavage kobs at 10000 uM GlcN6P (glucosamine-6-phosphate [7]) [s⁻¹]
1 | G59A C68U | 1.6e-05 ± 1.4e-06 |  |  |  |  |  | 
2 | C19A G40C | 0.00125 ± 0.00032 | 832 ± 360 | 7.99e-05 ± 1.9e-05 | 0.000173 ± 5.2e-05 | 0.000434 ± 0.00012 | 0.00156 ± 0.00041 | 0.00113 ± 0.00023
3 | A14G A36G | 4.89e-05 ± 6.4e-07 | 854 ± 82 |  |  |  | 3.69e-05 ± 1.2e-05 | 4.49e-05 ± 6.3e-06
4 | U49G C70A | 1.52e-05 ± 2.5e-06 |  |  |  |  |  | 
5 | U69A C70G | 1.72e-05 ± 8e-06 |  |  |  |  |  | 
6 | G13U A14C | 0.00021 ± 2.8e-05 | 8960 ± 1900 |  |  |  | 4.71e-05 ± 9.7e-06 | 0.00011 ± 2e-05
7 | A64U C67A | 2.58e-05 ± 3.2e-06 |  |  |  |  |  | 2.41e-05 ± 6.5e-06
8 | C16A A42G | 0.00215 ± 0.00056 | 2550 ± 900 | 3.27e-05 ± 1.1e-05 | 0.000111 ± 2.3e-05 | 0.00062 ± 0.00012 | 0.00103 ± 0.0002 | 0.00165 ± 0.00043
9 | G59U C61G | < 1e-05 |  |  |  |  |  | < 1e-05
10 | G29U A48U | 4.34e-05 ± 5.3e-06 |  |  |  |  | 4.72e-05 ± 1.3e-05 | 3.9e-05 ± 9.4e-06
11 | G29U A48G | 1.1e-05 ± 1.6e-06 |  |  |  |  |  | 
12 | G60A G63C | < 1e-05 |  |  | < 1e-05 |  | < 1e-05 | < 1e-05
13 | G29A C70A | 3.87e-05 ± 5e-06 |  |  |  | 4.17e-05 ± 1.5e-05 | 4.02e-05 ± 1.1e-05 | 2.96e-05 ± 1.4e-05
14 | A15G C68U | 0.00322 ± 0.00055 | 1130 ± 300 | 0.000128 ± 1.5e-05 | 0.00032 ± 7.2e-05 | 0.00112 ± 0.00019 | 0.00139 ± 0.00047 | 0.00316 ± 0.00032
15 | A15G C68A | 6.63e-05 ± 4.7e-06 | 131 ± 49 |  | 3.62e-05 ± 9e-06 | 5.49e-05 ± 1.2e-05 | 7.32e-05 ± 1.2e-05 | 6.03e-05 ± 9.3e-06
16 | U31C | 0.00939 ± 0.0013 | 2370 ± 430 | 0.000168 ± 2.9e-06 | 0.000489 ± 1.7e-05 | 0.00208 ± 7.4e-05 | 0.00415 ± 0.00014 | 0.00805 ± 0.00018
17 | U56A U65C | 0.00025 ± 5.7e-05 |  |  |  | 0.000242 ± 6.3e-05 | 0.000177 ± 4.4e-05 | 0.000248 ± 4.7e-05
18 | G29U A39G | 0.0173 ± 0.0026 | 3640 ± 720 | 0.000218 ± 4.4e-05 | 0.000723 ± 0.00021 | 0.00233 ± 0.0004 | 0.0072 ± 0.0012 | 0.0129 ± 0.0028

Reference: the supplement of paper PMC7125110
